Patent publication US20050208041A1 (Bristol-Myers Squibb, published 2005)

How the values were obtained:
[1] = target: T1, purified recombinant IFNAR-1 extracellular fragment (human, UniProt P17181 28-436); experiment: Biacore, antibody on immobilized soluble IFNAR-1, maximal response, mean of four
T1 construct: extracellular domain; also called soluble IFNAR-1; soluble IFNAR
T1 sequence (looked up): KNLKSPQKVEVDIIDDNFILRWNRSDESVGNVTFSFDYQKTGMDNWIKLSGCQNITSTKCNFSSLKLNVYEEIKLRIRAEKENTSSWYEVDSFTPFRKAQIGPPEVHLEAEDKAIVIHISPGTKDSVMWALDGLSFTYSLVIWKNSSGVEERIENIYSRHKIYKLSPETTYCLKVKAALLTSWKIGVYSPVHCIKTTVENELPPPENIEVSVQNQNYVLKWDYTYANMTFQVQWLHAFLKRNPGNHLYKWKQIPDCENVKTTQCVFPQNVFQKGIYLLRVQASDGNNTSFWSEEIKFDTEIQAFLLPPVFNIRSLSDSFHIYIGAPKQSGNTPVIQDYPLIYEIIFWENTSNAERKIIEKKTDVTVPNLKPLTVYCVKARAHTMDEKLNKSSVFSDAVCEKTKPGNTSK
Procedure: Additional combination variants heavy chain DI M3-B and light chain DI K1-C were also made. These combination variants were also tested for binding to IFNAR-1. […] Binding analysis was done by Biacore, with the antibody bound to immobilized soluble IFNAR-1. Maximal response was determined at two concentrations and values shown are mean of four determinations.

[2] = target: T1, purified recombinant IFNAR-1 …; experiment: Biacore, response on IFNAR-1 (flow cell 2) divided by response on anti-human IgG Fc (flow cell 4)
From the text: A series of antibodies were constructed with reduced numbers of potential T-cell epitopes. These included heavy chain variants M3-A and M3-B in which residues were changed in CDR regions and DI M3 in which framework residues were altered. De-immunized light chains were also constructed termed K1-C, K1-D, K1-E and DI K1. The antibodies were expressed and purified before analysis by Biacore. A Biacore chip was used with IFNAR-1 coated on Flow cell 2 at 690 RU and anti-human IgG Fc on flow cell 4 at 5000 RU. Binding of the antibody to IFNAR-1 relative to anti-human IgG Fc was determined by the ratio of response at flow cell 2 divided by flow cell 4 (Fc2/Fc4).

[3] = target: T1, purified recombinant IFNAR-1 …; experiment: Biacore, maximal association on IFNAR-1 relative to M3K1
From the text: Pools 4 and 11 were selected for further study and the individual antibodies in each pool were produced and expressed separately. The sequences of these individual antibodies were as shown in SEQ ID NO:12 of FIG. 1F and SEQ ID NO: 13 of FIG. 1G. The data is presented as maximal association relative to M3K1. […]

B1: DI M3 heavy chain with K1 light chain (antibody, human IgG4, V domains shown)
VH: EVQLLESGGGLVQPGGSLRLSCAASGFTMSTSGMGIGWIRQTPGKGLEWVAHIWWDDDKYYNPSLKSRFTISKDTSKNTLYLQMNSLRAEDTAVYYCARNYYPYDAWFDYWGQGTLVTVS
VL: DIQMTQSPSSLSASVGDRVTITCSASSSINSNHLHWYQQKPGKAPKLLIYRTSILASGVPSRFSGSGSGTSFTLTISSLQPEDFATYYCQQGSNIPFTFGQGTKVEIKR
notes: also called DI M3 K1
[1]
  % response relative to H3K1: 149%
[2]
  % activity relative to H3K1: 137%
  Fc2/Fc4: 0.41

B2: M3 heavy chain with DI K1 light chain (antibody, human IgG4, V domains shown)
VH: EVQLLESGGGLVQPGGSLRLSCAFSGFTLSTSGMGIGWVRQAPGKGLEWVAHIWWDDDKYYNPSLKSRFTISRDTSKNTVYLQMNSLRAEDTAVYYCARNYYPYDAWFDYWGQGTLVTVS
VL: DIQMTQSPSSLSASVGDRATITCSASSSINSNHLHWYLQKPGKAPKALIYRTSILASGIPSRFSGSGSGTDFTLTISSLQPEDTATYYCQQGSNIPFTFGQGTKVEIKR
notes: also called M3 DI K1
[1]
  % response relative to H3K1: 25%
[2]
  % activity relative to H3K1: 57%
  Fc2/Fc4: 0.17

B3: DI M3 heavy chain with DI K1 light chain (antibody, human IgG4, V domains shown)
VH: EVQLLESGGGLVQPGGSLRLSCAASGFTMSTSGMGIGWIRQTPGKGLEWVAHIWWDDDKYYNPSLKSRFTISKDTSKNTLYLQMNSLRAEDTAVYYCARNYYPYDAWFDYWGQGTLVTVS
VL: DIQMTQSPSSLSASVGDRATITCSASSSINSNHLHWYLQKPGKAPKALIYRTSILASGIPSRFSGSGSGTDFTLTISSLQPEDTATYYCQQGSNIPFTFGQGTKVEIKR
notes: also called DI M3 DI K1
[1]
  % response relative to H3K1: 8%
[2]
  % activity relative to H3K1: 20%
  Fc2/Fc4: 0.06

B4: DI M3 heavy chain with DI K1-C light chain (antibody, V domains shown)
VH: EVQLLESGGGLVQPGGSLRLSCAASGFTMSTSGMGIGWIRQTPGKGLEWVAHIWWDDDKYYNPSLKSRFTISKDTSKNTLYLQMNSLRAEDTAVYYCARNYYPYDAWFDYWGQGTLVTVS
VL: DIQMTQSPSSLSASVGDRVTITCSASTSINSNHLHWYLQKPGKAPKALIYRTSILASGIPSRFSGSGSGTDFTLTISSLQPEDTATYYCQQGSNIPFTFGQGTKVEIKR
notes: also called DI M3 DI K1-C
[1]
  % response relative to H3K1: 4%

B5: DI M3-B heavy chain with DI K1 light chain (antibody, V domains shown)
VH: EVQLLESGGGLVQPGGSLRLSCAASGFTMSTSGMGIGWIRQTPGKGLEWVAHIWWDDDKYYNPSLKARFTISRDTSKNTLYLQMNSLRAEDTAVYYCARNYYPYDAWFDYWGQGTLVTVS
VL: DIQMTQSPSSLSASVGDRATITCSASSSINSNHLHWYLQKPGKAPKALIYRTSILASGIPSRFSGSGSGTDFTLTISSLQPEDTATYYCQQGSNIPFTFGQGTKVEIKR
notes: also called DI M3-B DI K1
[1]
  % response relative to H3K1: 11%

B6: DI M3-B heavy chain with K1 light chain (antibody, V domains shown)
VH: EVQLLESGGGLVQPGGSLRLSCAASGFTMSTSGMGIGWIRQTPGKGLEWVAHIWWDDDKYYNPSLKARFTISRDTSKNTLYLQMNSLRAEDTAVYYCARNYYPYDAWFDYWGQGTLVTVS
VL: DIQMTQSPSSLSASVGDRVTITCSASSSINSNHLHWYQQKPGKAPKLLIYRTSILASGVPSRFSGSGSGTSFTLTISSLQPEDFATYYCQQGSNIPFTFGQGTKVEIKR
notes: also called DI M3-B K1
[1]
  % response relative to H3K1: 122%

B7: M3-B heavy chain with DI K1 light chain (antibody, V domains shown)
VH: EVQLLESGGGLVQPGGSLRLSCAFSGFTLSTSGMGIGWVRQAPGKGLEWVAHIWWDDDKYYNPSLKARFTISRDTSKNTVYLQMNSLRAEDTAVYYCARNYYPYDAWFDYWGQGTLVTVS
VL: DIQMTQSPSSLSASVGDRATITCSASSSINSNHLHWYLQKPGKAPKALIYRTSILASGIPSRFSGSGSGTDFTLTISSLQPEDTATYYCQQGSNIPFTFGQGTKVEIKR
notes: also called M3-B DI K1
[1]
  % response relative to H3K1: 17%

B8: M3-11 (X = W) heavy chain with K1 light chain (antibody, V domains shown)
VH: EVQLLESGGGLVQPGGSLRLSCAFSGFTLSTSGMGIGWVRQAPGKGLEWVAHIWWDDDKYYNPSLKSRFTISRDTSKNTVYLQMNSLRAEDTAVYYCARNYYPYDAWFDWWGQGTLVTVS
VL: DIQMTQSPSSLSASVGDRVTITCSASSSINSNHLHWYQQKPGKAPKLLIYRTSILASGVPSRFSGSGSGTSFTLTISSLQPEDFATYYCQQGSNIPFTFGQGTKVEIK
notes: Position counted within VH CDR3; also called M3-11 W
[3]
  % activity relative to M3K1: 70%

B9: DI M3-B heavy chain with DI K1-C light chain (antibody, V domains shown)
VH: EVQLLESGGGLVQPGGSLRLSCAASGFTMSTSGMGIGWIRQTPGKGLEWVAHIWWDDDKYYNPSLKARFTISRDTSKNTLYLQMNSLRAEDTAVYYCARNYYPYDAWFDYWGQGTLVTVS
VL: DIQMTQSPSSLSASVGDRVTITCSASTSINSNHLHWYLQKPGKAPKALIYRTSILASGIPSRFSGSGSGTDFTLTISSLQPEDTATYYCQQGSNIPFTFGQGTKVEIKR
notes: also called DI M3-B DI K1-C
[1]
  % response relative to H3K1: 9%

B10: DI M3 heavy chain with K1-C light chain (antibody, V domains shown)
VH: EVQLLESGGGLVQPGGSLRLSCAASGFTMSTSGMGIGWIRQTPGKGLEWVAHIWWDDDKYYNPSLKSRFTISKDTSKNTLYLQMNSLRAEDTAVYYCARNYYPYDAWFDYWGQGTLVTVS
VL: DIQMTQSPSSLSASVGDRVTITCSASTSINSNHLHWYQQKPGKAPKLLIYRTSILASGVPSRFSGSGSGTSFTLTISSLQPEDFATYYCQQGSNIPFTFGQGTKVEIKR
notes: also called DI M3 K1-C
[1]
  % response relative to H3K1: 96%

B11: M3-11 (X = V) heavy chain with K1 light chain (antibody, V domains shown)
VH: EVQLLESGGGLVQPGGSLRLSCAFSGFTLSTSGMGIGWVRQAPGKGLEWVAHIWWDDDKYYNPSLKSRFTISRDTSKNTVYLQMNSLRAEDTAVYYCARNYYPYDAWFDVWGQGTLVTVS
VL: DIQMTQSPSSLSASVGDRVTITCSASSSINSNHLHWYQQKPGKAPKLLIYRTSILASGVPSRFSGSGSGTSFTLTISSLQPEDFATYYCQQGSNIPFTFGQGTKVEIK
notes: Position counted within VH CDR3; also called M3-11 V
[3]
  % activity relative to M3K1: 108%

B12: M3-B heavy chain with K1 light chain (antibody, human IgG4, V domains shown)
VH: EVQLLESGGGLVQPGGSLRLSCAFSGFTLSTSGMGIGWVRQAPGKGLEWVAHIWWDDDKYYNPSLKARFTISRDTSKNTVYLQMNSLRAEDTAVYYCARNYYPYDAWFDYWGQGTLVTVS
VL: DIQMTQSPSSLSASVGDRVTITCSASSSINSNHLHWYQQKPGKAPKLLIYRTSILASGVPSRFSGSGSGTSFTLTISSLQPEDFATYYCQQGSNIPFTFGQGTKVEIKR
notes: also called M3-B K1
[1]
  % response relative to H3K1: 117%
[2]
  % activity relative to H3K1: 103%
  Fc2/Fc4: 0.31

B13: M3-B heavy chain with DI K1-C light chain (antibody, V domains shown)
VH: EVQLLESGGGLVQPGGSLRLSCAFSGFTLSTSGMGIGWVRQAPGKGLEWVAHIWWDDDKYYNPSLKARFTISRDTSKNTVYLQMNSLRAEDTAVYYCARNYYPYDAWFDYWGQGTLVTVS
VL: DIQMTQSPSSLSASVGDRVTITCSASTSINSNHLHWYLQKPGKAPKALIYRTSILASGIPSRFSGSGSGTDFTLTISSLQPEDTATYYCQQGSNIPFTFGQGTKVEIKR
notes: also called M3-B DI K1-C
[1]
  % response relative to H3K1: 14%

B14: M3 heavy chain with DI K1-C light chain (antibody, V domains shown)
VH: EVQLLESGGGLVQPGGSLRLSCAFSGFTLSTSGMGIGWVRQAPGKGLEWVAHIWWDDDKYYNPSLKSRFTISRDTSKNTVYLQMNSLRAEDTAVYYCARNYYPYDAWFDYWGQGTLVTVS
VL: DIQMTQSPSSLSASVGDRVTITCSASTSINSNHLHWYLQKPGKAPKALIYRTSILASGIPSRFSGSGSGTDFTLTISSLQPEDTATYYCQQGSNIPFTFGQGTKVEIKR
notes: also called M3 DI K1-C
[1]
  % response relative to H3K1: 17%

B15: M3 heavy chain with K1-C light chain (antibody, human IgG4, V domains shown)
VH: EVQLLESGGGLVQPGGSLRLSCAFSGFTLSTSGMGIGWVRQAPGKGLEWVAHIWWDDDKYYNPSLKSRFTISRDTSKNTVYLQMNSLRAEDTAVYYCARNYYPYDAWFDYWGQGTLVTVS
VL: DIQMTQSPSSLSASVGDRVTITCSASTSINSNHLHWYQQKPGKAPKLLIYRTSILASGVPSRFSGSGSGTSFTLTISSLQPEDFATYYCQQGSNIPFTFGQGTKVEIKR
notes: also called M3 K1-C
[1]
  % response relative to H3K1: 100%
[2]
  % activity relative to H3K1: 97%
  Fc2/Fc4: 0.29

B16: M3-11 (X = T) heavy chain with K1 light chain (antibody, V domains shown)
VH: EVQLLESGGGLVQPGGSLRLSCAFSGFTLSTSGMGIGWVRQAPGKGLEWVAHIWWDDDKYYNPSLKSRFTISRDTSKNTVYLQMNSLRAEDTAVYYCARNYYPYDAWFDTWGQGTLVTVS
VL: DIQMTQSPSSLSASVGDRVTITCSASSSINSNHLHWYQQKPGKAPKLLIYRTSILASGVPSRFSGSGSGTSFTLTISSLQPEDFATYYCQQGSNIPFTFGQGTKVEIK
notes: Position counted within VH CDR3; also called M3-11 T
[3]
  % activity relative to M3K1: 82%
